Details of data set [1]: method as in 3 sources, one per row (each row's own in cited_ref): ref 13 = [13]; PMID 9600986; doi:10.1073/pnas.95.11.6448; 13. Lambert MP , Diffusible, nonfibrillar ligands derived from Abeta1-42 are potent central nervous system neurotoxins . Proc Natl Acad Sci U S A 95 , 6448 – 6453 ( 1998 ). 9600986 10.1073/pnas.95.11. ||| ref 15 = [15]; PMID 26018073; doi:10.1074/jbc.M115.643577; 15. Kostylev MA , Prion-Protein-interacting Amyloid-beta Oligomers of High Molecular Weight Are Tightly Correlated with Memory Impairment in Multiple Alzheimer Mouse Models . J Biol Chem 290 , 17415 – ||| ref 14 = [14]; PMID 19216516; doi:10.1021/bi802046n; 14. Yu L , Structural characterization of a soluble amyloid beta-peptide oligomer . Biochemistry 48 , 1870 – 1877 ( 2009 ). 19216516 10.1021/bi802046n. The conditions noted are these: cited from earlier work.

For another data set, the system named is Aß42. The data set can be described thus: Thioflavin-T polymerization of Aß42. Type of data set: biochemical.
In another data set the test system is IC16 antibody. Description: IC16 capture ELISA. Type of data set: binding. (In general: In an ELISA, binding on a coated surface is turned into a signal by an enzyme label.)
The test system of a further data set is Aß species. As to conditions: reported; cited from earlier work. The source says:
For this comparison, the PSCMA-released Aß pool prior to antibody affinity retention was compared to PSCMA-resistant material containing plaque-associated Aß. The PSCMA-resistant material was further extracted with sarkosyl, and the sarkosyl-insoluble pellet resuspended for immunoblot. The Aß ...

The next data set has as its system receptor-bound Aß. Description: Lecanemab capture ELISA. The conditions noted are these: Lecanemab coated plate, D54D2 detection; Extended Data Fig. 1: 5 μg/mL coating, vs isotype control and no antibody wells. Type of data set: binding, human.

Entries after “also recorded” stand apart in the source; their conditions may differ.

Data on five molecules can be found in doi:10.1101/2025.10.10.681740, “Distinct Filament Conformation for Receptor-Bound Amyloid-ß from Alzheimer’s Disease Brain” (bioRxiv, 2025).

On to “amyloid-ß derived diffusible ligands [synthetic Aß42 ADDL]”, for which the “apparent MR” value in data set [1] (no reference at place) was 500,000. For the same molecule, in data set [1] (synthetic Aß42 in F12 media, metastable spherical assemblies), the assembly size was 500 kDa. For the same molecule, in the data set on PrP^C, the “PrP^C binding, summary” value is “binds”.

Regarding cellular prion protein [PrP^C], in the data set on Aß42, the “effect on Aß42 amyloid filament formation” value is “inhibits Aß42 amyloid filament formation”. Also, in the data set with Aß42 (pH 7.4), the “effect on rate of Aß42 polymerization seeded by fibrils” value is given as “reduced the rate of Aß42 polymerization or Aß42 polymerization seeded by fibrils” and the “effect on rate of Aß42 polymerization, unseeded” value is “reduced the rate of Aß42 polymerization”.

In the case of “Aß42 monomers: HFIP-monomerized synthetic Aß42”, the “apparent avidity for PrP^C in PLISA” value in the data set with PrP^C was “nil or at least two orders of magnitude lower”.

For “Aß42 globulomer: Globulomers of Aß42 are prepared in SDS and then isolated as stable 12-mers”, the assembly state result in data set [1] (prepared in SDS) is reported as “stable 12-mers”. For the same molecule, in the data set on IC16 antibody, the “affinity/activity in IC16 capture ELISA” value is “much higher activity”. Moreover, in the data set on PrP^C, the “PrP^C binding, summary” value was “binds” and the “apparent avidity for PrP^C in PLISA” value is “similar”.

B1: Lecanemab: FDA approved anti-Aß antibody (antibody, chains of the INN, looked up, V domains shown)
VH: EVQLVESGGGLVQPGGSLRLSCSASGFTFSSFGMHWVRQAPGKGLEWVAYISSGSSTIYYGDTVKGRFTISRDNAKNSLFLQMSSLRAEDTAVYYCAREGGYYYGRSYYTMDYWGQGTTVTVSS
VL: DVVMTQSPLSLPVTPGAPASISCRSSQSIVHSNGNTYLEWYLQKPGQSPKLLIYKVSNRFSGVPDRFSGSGSGTDFTLRISRVEAEDVGIYYCFQGSHVPPTFGPGTKLEIK
Consider B1, for which, in the data set with Aß species, the “binding preference among Aß species” value was “preferential affinity for oligomeric and protofibrillary Aß species, with less avidity for Aß filaments and minimal interaction with monomeric Aß”. The “affinity / reactivity for receptor-bound Aß” value with receptor-bound Aß is listed as “high affinity for the receptor-bound Aß species; also recorded: receptor-bound Aß is recognized by this antibody; also recorded: binds to ELISA plates coated with 5 μg/mL Lecanamab but not to wells coated with isotype control or to no antibody wells”.
